Laboratory results reported in publication PMC4750968, “A Splice Variant of Bardet-Biedl Syndrome 5 (BBS5) Protein that Is Selectively Expressed in Retina” (PLoS ONE, 2016).

What was measured:
Experiment in all cases: pull-down; 6.6 uM I16C-Alexa546-ARR1 mixed with 0.1 uM BBS5L-GST, BBS5-GST or GST, overnight at 4°C; immunoprecipitated with anti-GST antibody on magnetic beads; fluorescence of the captured arrestin1 measured
[1] = biological target: BBS5L-GST (splice variant of BBS5 in fusion with glutathione-S-transferase) (mouse)
[2] = biological target: BBS5L-GST phosphorylated by protein kinase C (mouse)
[3] = biological target: T1, I16C-Alexa546-ARR1 (I16C-substituted bovine arrestin1 labeled with AlexaFluor-546) (bovine, UniProt P08168 1-404, I16C, AlexaFluor-546 on the reactive sulfhydryl group generated by I16C); settings: both partners purified
T1 construct: arrestin1 (S-arrestin), bovine, with the substitution I16C; also called ARR1-Alexa546; fluorescently labeled arrestin1
T1 sequence (P08168 whole entry I16C): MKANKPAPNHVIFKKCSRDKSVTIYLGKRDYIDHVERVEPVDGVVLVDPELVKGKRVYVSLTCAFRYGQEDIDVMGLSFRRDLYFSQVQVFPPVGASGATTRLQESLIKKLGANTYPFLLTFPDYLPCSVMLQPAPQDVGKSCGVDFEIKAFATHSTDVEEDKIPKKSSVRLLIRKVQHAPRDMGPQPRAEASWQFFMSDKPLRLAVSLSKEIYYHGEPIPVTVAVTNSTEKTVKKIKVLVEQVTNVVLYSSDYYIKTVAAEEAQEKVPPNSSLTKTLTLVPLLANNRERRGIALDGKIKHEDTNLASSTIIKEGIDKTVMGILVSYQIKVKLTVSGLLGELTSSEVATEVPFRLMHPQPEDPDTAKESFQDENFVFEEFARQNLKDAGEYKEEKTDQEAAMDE

“I16C-Alexa546-ARR1 (I16C-substituted bovine arrestin1 labeled with AlexaFluor-546) (from UniProt P08168 1-404) (natural protein)” was tested, and the amount of arrestin1 bound relative to BBS5 [1] was 0.5 fold of BBS5 and the percent reduction of arrestin1 pull-down against unphosphorylated BBS5L [2] was 31%.

B1: BBS5-GST (Bardet-Biedl Syndrome 5 protein in fusion with glutathione-S-transferase) (natural protein, mouse, UniProt Q9CZQ9 1-341, looked up)
chain: MSVLDVLWEDRDVRFDVSSQQMKTRPGEVLIDCLDSIEDTKGNNGDRGRLLVTNLRIIWHSLALPRVNLSIGYNCILNITTRTANSKLRGQTEALYILTKCNTTRFEFIFTNLVPGSPRLFTSVIAVHRAYETSKMYRDFKLRSAVIQNKQLRLLPQEHVYDKINGVWNLSSDQGNLGTFFITNVRIVWHANMNDSFNVSIPYLQIRSIKIRDSKFGLALVIESSQQSGGYVLGFKIDPVEKLQESVKEINSLHKVYSASPIFGVNYEMEEKPQPLEALTVEQIQDDVEIDSDDHTDAFVAYFADGNKQQDREPVFSEELGLAIEKLKDGFTLQGLWEVMS
notes: BBS5, mouse; open-reading frame amplified from murine retinal cDNA; cDNA for His-tagged BBS5 was cloned into pGEX-4T-1 at the EcoRI site, fused to the C-terminus of GST; not shown: GST, N-terminal, kept
B1: binds [3].
